Laboratory results from paper PMC2597375 (Nature structural & molecular biology, 2008).
Positions count from the first letter of the chain named. Numbers in names are those of the source. Where no end group is shown, it is not given here. [ ]: non-standard residue; d: D form. pS = N[C@@H](COP(=O)(O)O)C(=O)O

T1: Nrd1_(6–151) L20D (S. cerevisiae, UniProt P53617 6-151, L20D)
T1 sequence: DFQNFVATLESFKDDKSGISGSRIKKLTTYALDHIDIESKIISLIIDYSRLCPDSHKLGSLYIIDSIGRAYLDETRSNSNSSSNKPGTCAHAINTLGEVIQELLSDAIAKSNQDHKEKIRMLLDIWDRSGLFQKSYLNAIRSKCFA

T2: Nrd1_(6–151) I130R (S. cerevisiae, UniProt P53617 6-151, I130R)
T2 sequence: T1 sequence with D15L, I125R

T3: Nrd1_(6–151) K21D (S. cerevisiae, UniProt P53617 6-151, K21D)
T3 sequence: T1 sequence with D15L, K16D

T4: Nrd1_(6–151) S22D (S. cerevisiae, UniProt P53617 6-151, S22D)
T4 sequence: T1 sequence with D15L, S17D

T5: Nrd1_(6–151) wild-type (S. cerevisiae, UniProt P53617 6-151)
T5 sequence: T1 sequence with D15L

T6: Nrd1_(6–151) K21P (S. cerevisiae, UniProt P53617 6-151, K21P)
T6 sequence: T1 sequence with D15L, K16P

T7: Nrd1_(6–224) (S. cerevisiae, UniProt P53617 6-224)
T7 sequence: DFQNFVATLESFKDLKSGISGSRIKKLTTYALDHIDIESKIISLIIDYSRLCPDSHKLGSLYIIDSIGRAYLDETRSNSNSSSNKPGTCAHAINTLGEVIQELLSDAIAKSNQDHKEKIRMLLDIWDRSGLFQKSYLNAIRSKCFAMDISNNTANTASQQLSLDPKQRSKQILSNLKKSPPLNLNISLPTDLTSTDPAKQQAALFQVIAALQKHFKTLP

B1: Nrd1_(6–151) K21P (domain or fragment)
chain: T1 sequence with D15L, K16P
B2: Nrd1_(6–151) K21D (domain or fragment)
chain: T1 sequence with D15L, K16D
B3: Nrd1_(6–151) S22D (domain or fragment)
chain: T1 sequence with D15L, S17D
B4: Nrd1_(6–151) D70R (domain or fragment)
chain: T1 sequence with D15L, D65R
B5: Nrd1_(6–151) I130R (domain or fragment)
chain: T1 sequence with D15L, I125R
B6: unlabeled double-repeat CTD-Ser2P peptide (peptide)
chain: Y[pS]PTSPSY[pS]PTSPS
B7: Nab3_(204–248) (domain or fragment)
chain: ENVNYDLLQKQVKYIMDSNMLNLPQFQHLPQEEKMSAILAMLNSN
B8: Nrd1_307–560: containing only the RNA binding region and the C-terminal region (protein)
chain: PDELNVSNNPHYRPKPVSYDSTLPPDHIKVYSRTLFIGGVPLNMKEWDLANVLKPFAEVQSVILNNSRKHAFVKVYSRHEAENVLQNFNKDGALPLRTRWGVGFGPRDCCDYQHGYSIIPMHRLTDADKKWSVSAQWGGTSGQPLVTGIVFEEPDIIVGEGVSSKAISQKMPTDSGRNGPRSGKPNKSGSISSISPVPYGNAPLASPPPQQYVQPMMQQPYGYAPNQPLPSQGPAAAAPPVPQQQFDPTAQLNS
B9: Nrd1Δ6–150 (protein)
chain: MQQDDAMDISNNTANTASQQLSLDPKQRSKQILSNLKKSPPLNLNISLPTDLTSTDPAKQQAALFQVIAALQKHFKTLPSHTSVGTVAPPQAHTITEYGSRRERERERERYNSRRNRSRSPPAPFSQPSTGRKDRYPSVAQDQYSIGAPNTTFGTNNHHLYPDELNVSNNPHYRPKPVSYDSTLPPDHIKVYSRTLFIGGVPLNMKEWDLANVLKPFAEVQSVILNNSRKHAFVKVYSRHEAENVLQNFNKDGALPLRTRWGVGFGPRDCCDYQHGYSIIPMHRLTDADKKWSVSAQWGGTSGQPLVTGIVFEEPDIIVGEGVSSKAISQKMPTDSGRNGPRSGKPNKSGSISSISPVPYGNAPLASPPPQQYVQPMMQQPYGYAPNQPLPSQGPAAAAPPVPQQQFDPTAQLNSLMNMLNQQQQQQQQS
modifications: left off: TAP (with Protein A module), end not stated, kept
B10: Nrd1Δ151–214 (protein)
chain: MQQDDDFQNFVATLESFKDLKSGISGSRIKKLTTYALDHIDIESKIISLIIDYSRLCPDSHKLGSLYIIDSIGRAYLDETRSNSNSSSNKPGTCAHAINTLGEVIQELLSDAIAKSNQDHKEKIRMLLDIWDRSGLFQKSYLNAIRSKCFALQKHFKTLPSHTSVGTVAPPQAHTITEYGSRRERERERERYNSRRNRSRSPPAPFSQPSTGRKDRYPSVAQDQYSIGAPNTTFGTNNHHLYPDELNVSNNPHYRPKPVSYDSTLPPDHIKVYSRTLFIGGVPLNMKEWDLANVLKPFAEVQSVILNNSRKHAFVKVYSRHEAENVLQNFNKDGALPLRTRWGVGFGPRDCCDYQHGYSIIPMHRLTDADKKWSVSAQWGGTSGQPLVTGIVFEEPDIIVGEGVSSKAISQKMPTDSGRNGPRSGKPNKSGSISSISPVPYGNAPLASPPPQQYVQPMMQQPYGYAPNQPLPSQGPAAAAPPVPQQQFDPTAQLNSLMNMLNQQQQQQQQS
modifications: left off: TAP (with Protein A module), end not stated, kept

Experiments:
[1] = target: unlabeled double-repeat CTD-Ser2P/Ser5P peptide (S. cerevisiae); experiment: fluorescence polarisation
[2] = target: unlabeled double-repeat CTD-Ser5P peptide (S. cerevisiae); experiment: fluorescence polarisation
Nrd1_(6–151) L20D = target: T1, Nrd1_(6–151) L20D; experiment: fluorescence polarisation
Nrd1_(6–151) I130R = target: T2, Nrd1_(6–151) I130R; experiment: fluorescence polarisation
Nrd1_(6–151) K21D = target: T3, Nrd1_(6–151) K21D; experiment: fluorescence polarisation
Nrd1_(6–151) S22D = target: T4, Nrd1_(6–151) S22D; experiment: fluorescence polarisation
Nrd1_(6–151) wild-type = target: T5, Nrd1_(6–151) wild-type; experiment: fluorescence polarisation
Nrd1_(6–151) K21P = target: T6, Nrd1_(6–151) K21P; experiment: fluorescence polarisation
Nrd1_(6–224) = target: T7, Nrd1_(6–224); experiment: ITC
CTD = CTD binding of Nrd1 variants; details: point mutants: fluorescence anisotropy, Table 1; deletions: data not shown
Pol II = format: binding, S. cerevisiae; details: whole-cell extracts, IgG purification, anti-CTD Ser5P (H14) immunoblot

Molecule	Kd [1] [µM]	Kd [2] [µM]	further results
Nrd1_(6–151) L20D (from UniProt P53617 6-151) (domain or fragment)	19		
Nrd1_(6–214) wild-type (from UniProt P53617 6-214) (domain or fragment)		48	
Nrd1_(6–151) wild-type (from UniProt P53617 6-151) (domain or fragment)	16	40	
B1	48	70	
B2	70	95	
B3	100	140	
B4	100	680	
B5	27	215	
B6			Kd (Nrd1_(6–151) L20D): 560 µM; Kd (Nrd1_(6–151) I130R): 550 µM; Kd (Nrd1_(6–151) K21D): 610 µM; Kd (Nrd1_(6–151) S22D): 470 µM; Kd (Nrd1_(6–151) wild-type): 390 µM; Kd (Nrd1_(6–151) K21P): 380 µM
B7			Kd (Nrd1_(6–224)): 0.16 µM; stoichiometry N (Nrd1_(6–224)): 1
B8			CTD binding of Nrd1 variant (CTD): no CTD binding
B9			Association with Pol II (Pol II): greatly reduced association with Pol II
B10			Association with Pol II (Pol II): greatly reduced association with Pol II
